Results: patent publication US20170204167A1

Experiments:
[1] = target: HA of H7 pseudovirus (A/chicken/Italy/99) in which the glycosylation site (Asn-38) was removed (influenza A virus H7 A/chicken/Italy/99); test: cell-based or functional assay
[2] = target: HA of H13N6 A/gull/Maryland/704/77 (ELISA antigen) (influenza A virus H13N6 A/gull/Maryland/704/77) (UniProt P13103); test: ELISA on recombinant or purified HA
[3] = target: HA of H3N2 A/Wyoming/3/03 (influenza A virus H3N2 A/Wyoming/3/03); test: ELISA on recombinant or purified HA
[4] = target: HA of H5N1 A/Viet Nam/1/05 (influenza A virus H5N1 A/Viet Nam/1/05); test: ELISA on recombinant or purified HA
[5] = target: HA of H8N4 A/Alberta/357/84 (influenza A virus H8N4 A/Alberta/357/84); test: ELISA on recombinant or purified HA
[6] = target: HA of H1N1 A/Brisbane/59/07 (influenza A virus H1N1 A/Brisbane/59/07); test: ELISA on recombinant or purified HA
[7] = target: HA of H2N2 A/Singapore/1/57 (influenza A virus H2N2 A/Singapore/1/57) (UniProt Q67333); test: ELISA on recombinant or purified HA
[8] = target: HA of H9 A/HK/1073/99 (influenza A virus H9N2 A/Hong Kong/1073/99); test: ELISA on recombinant or purified HA
[9] = target: HA of H6N5 A/shearwater/Australia/1/72 (influenza A virus H6N5 A/shearwater/Australia/1/72); test: ELISA on recombinant or purified HA
[10] = target: HA of H3N2 A/New York/55/04 (influenza A virus H3N2 A/New York/55/04); test: ELISA on recombinant or purified HA
[11] = target: HA of H7N3 A/Canada/444/04 (influenza A virus H7N3 A/Canada/444/04); test: ELISA on recombinant or purified HA
[12] = target: HA of H3N2 A/Brisbane/10/07 (influenza A virus H3N2 A/Brisbane/10/07); test: ELISA on recombinant or purified HA
[13] = target: HA of H4N6 A/duck/Czechoslovakia/56 (ELISA antigen) (influenza A virus H4N6 A/duck/Czechoslovakia/56) (UniProt P19696); test: ELISA on recombinant or purified HA
[14] = target: HA of H10N4 A/mink/Sweded/3900/84 (influenza A virus H10N4 A/mink/Sweded/3900/84); test: ELISA on recombinant or purified HA
[15] = target: HA of H5N1 A/Viet Nam/1203/04 (influenza A virus H5N1 A/Viet Nam/1203/04); test: ELISA on recombinant or purified HA

Row | Substance | neutralization of H7 pseudovirus, IC50 [1] [µg/mL] | EC50 [2] [µg/mL] | EC50 [3] [µg/mL] | EC50 [4] [µg/mL] | EC50 [5] [µg/mL] | EC50 [6] [µg/mL] | EC50 [7] [µg/mL] | EC50 [8] [µg/mL] | EC50 [9] [µg/mL] | EC50 [10] [µg/mL] | EC50 [11] [µg/mL] | EC50 [12] [µg/mL] | EC50 [13] [µg/mL] | EC50 [14] [µg/mL] | EC50 [15] [µg/mL]
1 | CR6261 (antibody) | > 50 |  |  |  |  |  |  |  |  |  |  |  |  |  | 
2 | ctr (control antibody of Table 8) |  | > 20 | > 20 | > 20 | > 20 | > 20 | > 20 | > 20 | > 20 | > 20 | > 20 | > 20 | > 20 | > 20 | > 20
3 | F10 (antibody) | > 50 |  |  |  |  |  |  |  |  |  |  |  |  |  | 
